In patent US20250296999A1 one finds EC50 (read off the curve) data, which are given here for one substance.

What is called EC50 (read off the curve) is the concentration giving half of the maximal effect. A low value points to a more potent agent.

The target of this assay is alpha v beta 3 integrin on human podocytes (human) (UniProt P06756).
alpha v beta 3 integrin on human podocytes (human), sequence (P06756 31-1048, chain 1 of 2): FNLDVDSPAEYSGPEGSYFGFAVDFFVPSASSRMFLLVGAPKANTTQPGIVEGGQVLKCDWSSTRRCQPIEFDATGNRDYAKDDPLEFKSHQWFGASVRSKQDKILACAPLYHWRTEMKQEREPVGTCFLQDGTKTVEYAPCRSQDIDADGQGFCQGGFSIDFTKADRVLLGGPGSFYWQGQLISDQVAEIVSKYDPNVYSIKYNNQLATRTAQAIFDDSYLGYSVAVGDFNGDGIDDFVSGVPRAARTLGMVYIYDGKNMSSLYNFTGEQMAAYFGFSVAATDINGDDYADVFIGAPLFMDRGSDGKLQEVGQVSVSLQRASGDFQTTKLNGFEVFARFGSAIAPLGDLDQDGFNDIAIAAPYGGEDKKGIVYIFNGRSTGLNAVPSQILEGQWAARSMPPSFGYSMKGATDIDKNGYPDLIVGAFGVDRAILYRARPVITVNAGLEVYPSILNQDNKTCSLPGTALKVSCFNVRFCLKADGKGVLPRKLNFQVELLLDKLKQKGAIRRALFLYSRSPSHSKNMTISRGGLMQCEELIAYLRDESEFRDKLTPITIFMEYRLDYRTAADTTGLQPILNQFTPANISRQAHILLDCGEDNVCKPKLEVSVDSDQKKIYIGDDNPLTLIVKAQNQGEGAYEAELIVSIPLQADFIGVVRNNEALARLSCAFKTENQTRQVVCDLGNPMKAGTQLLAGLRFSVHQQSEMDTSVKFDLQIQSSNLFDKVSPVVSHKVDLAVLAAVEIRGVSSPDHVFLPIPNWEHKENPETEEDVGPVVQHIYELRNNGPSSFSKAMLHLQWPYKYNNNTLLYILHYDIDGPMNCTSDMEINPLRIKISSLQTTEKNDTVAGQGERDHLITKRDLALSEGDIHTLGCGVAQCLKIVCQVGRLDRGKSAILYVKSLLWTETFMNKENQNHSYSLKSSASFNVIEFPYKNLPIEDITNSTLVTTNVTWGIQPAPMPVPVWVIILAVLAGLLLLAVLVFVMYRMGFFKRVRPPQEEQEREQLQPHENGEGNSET
alpha v beta 3 integrin on human podocytes (human), sequence (P05106 27-788, chain 2 of 2, further chain): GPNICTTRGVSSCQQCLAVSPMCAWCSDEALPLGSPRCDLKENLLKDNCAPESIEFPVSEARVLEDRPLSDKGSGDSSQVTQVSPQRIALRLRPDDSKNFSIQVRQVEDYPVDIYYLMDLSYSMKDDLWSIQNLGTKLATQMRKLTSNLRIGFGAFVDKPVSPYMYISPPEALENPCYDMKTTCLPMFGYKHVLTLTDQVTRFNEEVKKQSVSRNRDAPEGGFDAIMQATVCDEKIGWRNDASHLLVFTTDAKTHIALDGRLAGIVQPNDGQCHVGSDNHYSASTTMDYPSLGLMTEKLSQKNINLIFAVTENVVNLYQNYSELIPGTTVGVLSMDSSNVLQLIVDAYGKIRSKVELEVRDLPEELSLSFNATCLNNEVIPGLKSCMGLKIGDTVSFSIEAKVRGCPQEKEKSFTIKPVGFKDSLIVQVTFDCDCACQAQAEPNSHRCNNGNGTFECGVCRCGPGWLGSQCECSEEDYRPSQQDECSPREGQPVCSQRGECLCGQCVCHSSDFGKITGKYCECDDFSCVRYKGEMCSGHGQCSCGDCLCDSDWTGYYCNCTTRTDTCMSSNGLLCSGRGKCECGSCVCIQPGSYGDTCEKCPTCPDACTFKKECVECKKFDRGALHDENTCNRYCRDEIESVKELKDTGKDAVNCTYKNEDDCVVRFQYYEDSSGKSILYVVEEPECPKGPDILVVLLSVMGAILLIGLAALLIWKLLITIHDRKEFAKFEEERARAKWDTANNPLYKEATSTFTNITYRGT

Turning to “human D2D3 protein (C-terminal uPAR fragment, D2D3 protein with Linker) (from UniProt Q03405 100-303) (receptor)”, the EC50 (read off the curve) came to 2 ng/mL.
